Reference: paper PMC11058820

Biological target: HLA-A*11:01 monomer (commercial, biotinylated, preloaded with a UV-sensitive peptide that is destroyed by UV) (human)
Experiment: ELISA; UV-mediated peptide exchange: 25 μM peptide in PBS mixed 1:1 with […] biotinylated UV-sensitive HLA-A*11:01 monomer on ice, 366 nm UV 30 min; stable monomers captured on streptavidin plates and detected with HRP anti-human β2-microglobulin; result as percentage of positive signal against positive and negative control peptides

- percentage of positive signal: 46.6%
Binder: VVGAGGVGK [KRAS_(8–16)^WT peptide]
